Test results taken from patent US20100291070A1.

Biological target: PA1698 protein on Pseudomonas aeruginosa PA103 strain cells (Pseudomonas aeruginosa (PA103 strain))
Test: whole cell ELISA on immobilised P. aeruginosa PA103, 50 ug/well

## negative control IgG fraction purified from control rat sera obtained by administering only adjuvant (antibody)
  absorbance at 450 nm: 0.084
